Measurements: patent US20240075105A1

Biological target: the cell surface receptor (of interleukin-2) on CTLL-2 cells
Experiment: cell-based or functional assay

Row | specific bioactivity (CTLL-2 cell/MTT colorimetry) | Substance
1 | 2.39e+06 IU/mg | recombinant human interleukin-2/serum albumin fusion protein (rhIL-2/SA, code 9333) (ligand)
2 | 2.46e+06 IU/mg | recombinant human serum albumin/interleukin-2 fusion protein (rHSA/IL-2, code 9222) (ligand)
